Molecular target: T1, 사람 ICAM4 (intercellular adhesion molecule 4) (human, UniProt Q14773 31-271)
T1 construct: whole, on cells; Always on cells that carry it naturally; no recombinant ICAM4 was used; also called CD242; 1E1 항원
T1 sequence (looked up): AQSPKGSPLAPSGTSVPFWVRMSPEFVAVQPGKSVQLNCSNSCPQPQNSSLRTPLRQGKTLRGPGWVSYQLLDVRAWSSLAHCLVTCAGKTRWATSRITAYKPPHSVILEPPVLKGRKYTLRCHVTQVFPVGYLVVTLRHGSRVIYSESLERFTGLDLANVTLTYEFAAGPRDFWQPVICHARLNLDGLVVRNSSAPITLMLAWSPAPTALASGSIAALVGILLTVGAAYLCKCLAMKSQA
Assay: binding affinity compared with the chimeric antibody (Fig. 5)

B1: 항-ICAM4 인간화항체 VH2A 및 VL2C의 조합 (antibody, V domains shown)
VH: QVQLVESGGGLVKPGGSLRLSCAVSGFSLTDYGVGWIRQAPGKGLEWLGVMWGGGRTYYNAPVKSRLTISKDNAKNSVYLQMNSLRAEDTAVYYCVKTGQDYAVDYWGQGTLVTVSS
VL: EIVLTQSPATLSLSPGERATLSCRASKSVSKYLAWYQEKPGQANRLLIYSGSTLQSGIPARFSGSGSGTDFTLTISSLEPEDFAVYYCQQHNVYPWTFGQGTKVEIK
notes: also called VH2A/VL2C
B1: binds.

— patent KR20190060702A (dated 2019)
